Laboratory results as given in article PMC11324738.

B1: GPR50-FLAG WT, Q13585 Y305A; W306A; T307A; I308A (protein)
chain: MGPTLAVPTPYGCIGCKLPQPEYPPALIIFMFCAMVITIVVDLIGNSMVILAVTKNKKLRNSGNIFVVSLSVADMLVAIYPYPLMLHAMSIGGWDLSQLQCQMVGFITGLSVVGSIFNIVAIAINRYCYICHSLQYERIFSVRNTCIYLVITWIMTVLAVLPNMYIGTIEYDPRTYTCIFNYLNNPVFTVTIVCIHFVLPLLIVGFCYVRIWTKVLAARDPAGQNPDNQLAEVRNFLTMFVIFLLFAVCWCPINVLTVLVAVSPKEMAGKIPNWLYLAAYFIAYFNSCLNAVIYGLLNENFRREAAAAFHAMRHPIIFFSGLISDIREMQEARTLARARAHARDQAREQDRAHACPAVEETPMNVRNVPLPGDAAAGHPDRASGHPKPHSRSSSAYRKSASTHHKSVFSHSKAASGHLKPVSGHSKPASGHPKSATVYPKPASVHFKADSVHFKGDSVHFKPDSVHFKPASSNPKPITGHHVSAGSHSKSAFSAATSHPKPTTGHIKPATSHAEPTTADYPKPATTSHPKPTAADNPELSASHCPEIPAIAHPVSDDSDLPESASSPAAGPTKPAASQLESDTIADLPDPTVVTTSTNDYHDVVVIDVEDDPDEMAV

Key:
[1] = molecular target: recombinant LC3 protein, Q9GZQ8; assay: ELISA; details: chain shown with the change, recombinant LC3 coated on the plate, biotin-labeled synthetic peptide, read off a plot
[2] = molecular target: GFP-LC3, Q9GZQ8; assay: Co-immunoprecipitation; details: chain shown with the change; HEK293T cells co-transfected with GFP-LC3 and GPR50-FLAG constructs; IP anti-FLAG; n = 4 independent experiments; parent: est. 1.0; read off a plot
[3] = molecular target: endogenous LC3 (human cells), Q9GZQ8; assay: Proximity Ligation Assay; details: chain shown with the change; HeLa cells transfected with GPR50-FLAG constructs; antibodies against LC3 and FLAG; n = 178–208 cells per group from 3 independent experiments; parent: est. 25; read off a plot

Binder | response ([1]; peptide 1 µM, parent: est. 0.47) | response ([1]; peptide 2.5 µM, parent: est. 1.2) | response ([1]; peptide 5 µM, parent: est. 3.2) | response ([1]; peptide 10 µM, parent: est. 3.7) | response ([1]; peptide 20 µM, parent: est. 3.7) | response ([1]; peptide 40 µM, parent: est. 3.7) | ratio to parent [2] | response (DUO (+) spots/cell) [3]
NAVIYGLLNENFRREAAAAFHAM [biotin-labeled synthetic GPR50 LIR peptide, a.a. 290-312 (WT), Q13585 Y305A; W306A; T307A; I308A] | 0.38 OD (562 nm) | 0.35 OD (562 nm) | 0.38 OD (562 nm) | 0.4 OD (562 nm) | 0.4 OD (562 nm) | 0.5 OD (562 nm) |  | 
B1 |  |  |  |  |  |  | 0.65 | 5.5
